Data published in publication PMC4569848.

Legend:
[1] = target: β-arrestin-1–Y63-F2Y (UniProt P17870); test: 19F-NMR
[2] = target: β-arrestin-1-R7-F2Y (UniProt P17870); test: 19F-NMR
Chain of β-arrestin-1-R7-F2Y (P17870 other isoform, or with tags, fused parts or gaps R7-F2Y): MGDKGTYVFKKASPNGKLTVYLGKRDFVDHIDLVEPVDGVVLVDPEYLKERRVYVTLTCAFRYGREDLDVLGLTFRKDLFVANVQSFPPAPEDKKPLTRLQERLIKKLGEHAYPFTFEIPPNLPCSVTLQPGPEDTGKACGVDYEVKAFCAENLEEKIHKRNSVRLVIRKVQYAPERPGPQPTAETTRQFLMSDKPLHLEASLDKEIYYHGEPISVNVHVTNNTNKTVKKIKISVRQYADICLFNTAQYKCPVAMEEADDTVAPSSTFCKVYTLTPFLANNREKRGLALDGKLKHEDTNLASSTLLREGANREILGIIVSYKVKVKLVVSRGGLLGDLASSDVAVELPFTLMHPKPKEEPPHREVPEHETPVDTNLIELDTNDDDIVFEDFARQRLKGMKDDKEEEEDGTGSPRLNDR

Chain of β-arrestin-1–Y63-F2Y (P17870 whole entry, stated change not applied): as the sequence (P17870 other isoform, or with tags, fused parts or gaps R7-F2Y) above, with Y7R counted along it

Substance	other: 19F chemical shift change [1]	other: 19F chemical shift change [2]
GRK6pp (GRK6-phosphorylated β2AR C-tail) E369A	0.89 p.p.m.	0.01 p.p.m.
GRK6pp (GRK6-phosphorylated β2AR C-tail) pS355S	0.02 p.p.m.	0.09 p.p.m.
